# IntAct's records for PubMed 22402663
# B1: Histone-lysine N-methyltransferase SETD7 (Homo sapiens), Q8WTS6 (parent)
# chain: MDSDDEMVEEAVEGHLDDDGLPHGFCTVTYSSTDRFEGNFVHGEKNGRGKFFFFDGSTLEGYYVDDALQGQGVYTYEDGGVLQGTYVDGELNGPAQEYDTDGRLIFKGQYKDNIRHGVCWIYYPDGGSLVGEVNEDGEMTGEKIAYVYPDERTALYGKFIDGEMIEGKLATLMSTEEGRPHFELMPGNSVYHFDKSTSSCISTNALLPDPYESERVYVAESLISSAGEGLFSKVAVGPNTVMSFYNGVRITHQEVDSRDWALNGNTLSLDEETVIDVPEPYNHVSKYCASLGHKANHSFTPNCIYDMFVHPRFGPIKCIRTLRAVEADEELTVAYGYDHSPPGKSGPEAPEWYQVELKAFQATQQK
# B2: Forkhead box protein O3 (Mus musculus), Q9WVH4 (parent)
# chain: MAEAPASPVPLSPLEVELDPEFEPQSRPRSCTWPLQRPELQASPAKPSGETAADSMIPEEDDDEDDEDGGGRASSAMVIGGGVSSTLGSGLLLEDSAMLLAPGGQDLGSGPASAAGALSGGTPTQLQPQQPLPQPQPGAAGGSGQPRKCSSRRNAWGNLSYADLITRAIESSPDKRLTLSQIYEWMVRCVPYFKDKGDSNSSAGWKNSIRHNLSLHSRFMRVQNEGTGKSSWWIINPDGGKSGKAPRRRAVSMDNSNKYTKSRGRAAKKKAALQAAPESADDSPSQLSKWPGSPTSRSSDELDAWTDFRSRTNSNASTVSGRLSPILASTELDDVQDDDGPLSPMLYSSSASLSPSVSKPCTVELPRLTDMAGTMNLNDGLAENLMDDLLDNIALPPSQPSPPGGLMQRGSSFPYTAKSSGLGSPTGSFNSTVFGPSSLNSLRQSPMQTIQENRPATFSSVSHYGNQTLQDLLASDSLSHSDVMMTQSDPLMSQASTAVSAQNARRNVMLRNDPMMSFAAQPTQGSLVNQNLLHHQHQTQGALGGSRALSNSVSNMGLSDSSSLGSAKHQQQSPASQSMQTLSDSLSGSSLYSASANLPVMGHDKFPSDLDLDMFNGSLECDMESIIRSELMDADGLDFNFDSLISTQNVVGLNVGNFTGAKQASSQSWVPG
# partner: B1 chain
# Variants of: B1
# Conditions: with foxo3_mouse Foxo3, Q9WVH4
row,Variant,effect of a mutation on the interaction
1,H297A,disrupting interaction

# Variants of: B2
# Conditions: with setd7_human SETD7, Q8WTS6
row,Variant,effect of a mutation on the interaction
1,K270R,disrupting interaction
